# Assay results reported in the RNAGym collection of RNA variant scans (doi:10.1073/pnas.2313332121).
# B1: TPR t1 (parent)
# chain: GACCAAUCUGCCCUCAGAGCUCGAGAACAUCUUCGGAUGCAGAGGAGGCAGGCUUCGGUGGCGCGAUAGCGCCAACGUCCUCAACCUCCAAUGCAUCCCACCACAUGAUGAUGCCUGAAGAGCCUUGGUUUUUUG
# Variants of: B1
# Assay: polymerase ribozyme fitness, log enrichment relative to wild type (log ratio); higher = more active; in vitro selection for triplet polymerase activity
# Method in brief: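 Only genotypes with ≥10 input reads and ≥1 read per output were kept after Illumina sequencing of input and output libraries. These libraries were PCR-built, transcribed mutants of each subunit of a heterodimeric triplet polymerase ribozyme, each put through one triplicate in vitro selection round with frozen incubation at −7 °C, gel excision of extended constructs, streptavidin-bead capture and RT-PCR. Fitness is a logarithmic ratio of genotype enrichment to wild-type enrichment, from inverse-variance-weighted replicate averages, with the logarithm in base 2.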
row,Variant,polymerase ribozyme fitness (log ratio)
1,GACCAAGCUGCCCUCAGAGCUCGAGAACAUCUUCGGAUGCAGAGGAGGCAGGCUUCGGUGGCGCGAUAGCGCCAACGGCGUCAACCUCCAAUGCAUCCCACCACAUGAUGAUGCCUGAAGAGCCUUGGUUUUUUU [U7G U78G C80G G135U],-5.8
2,GACCAAGCUGCCCUCAGAGCUCGAGAACAUCUUCGGAUGCAGAGGAGGCAGGCUUCGGUGGCGCGAUAGCGCCAACGUCCUCAACCUCCAAUGCAUCCCACCACAUGAUGAUGCCUUAAGAGCCUUGGUUUUUUG [U7G G117U],-2.24
3,GACCAAGCUACCCUCAGAUCUCGAGAACAUCUUCGGAUGCAGAGGAGGCAGGCUUCGGUGGCGCGAUAGCGCCAACGUCCUCAACCUCCAAUGCAUCCCACCACAUGAUGAUACCUGAAGAGCCUUGGUUUUUUG [U7G G10A G19U G113A],-1.32
4,GACCAAGCUGCCCUCAGAGCUCGAGAACAUCUUCGGAUGCAGAGGAGGCAGGCUUCGGUGGCGCGAUAGCGCCAACGUCCUCAACCUCCAAAGCAUCCCACCACAUGAUGAUGCCUGAAGAGCCUUGGUUUUUUG [U7G U92A],-2.22
5,GACCAAGCUGCCCUCAGAGCUCGAGAACAUCUUCGGAUGCAGAGGAGGCAGGCCGCGGUGGCGCGAUAGCGCCAACGUCCUCAACCUCCAAUGCAUCCCACCACAUGAUGAUGCCUGAAGAGCCUUGGUUUUUUG [U7G U54C U55G],0.467
6,GACCAAGCUGCCCUCAGAGCUCGAGAACAUCUUCGGAUGCAGAGGAGGCAGGCUUCGGUGGCGCGAUAACGCCAACGUCCUCAACCUCCAAUGCAUCCCAUCACAUGAUGAUGCCUGAAGAGCCUUGGUUUUUUG [U7G G69A C101U],-2.81
7,GACCAAGCUGCCCUCAGAGCUCGAGAACAUCUUCGGAUGCAGAGGAGGCAGGCUUCGGUGGCGCGAUAGCGCCAACGUCCUCAACCUCCAAUGCAUCCCACCACAUGAUUAUGCCUGAAGAGCCUUGGUUUUUUG [U7G G110U],-0.723
8,GACCAAGCUGCCCUCAGAGCUCGAGAACAUCUUCGGAUGCAGAGGAGGCAGGCUUCGGUGGCGCGAUAGCGCCAACGUCCUCAACCUCCAAUGCAACCCACCACAUGAUGAUGCCUGAAGCGCCUUGGUUUUUUG [U7G U96A A121C],0.553
9,GACCAAGCUGCCCUCAGAGCUCGAGAACAUCUUCGGAUGCAGAGGAGGCAGGCUUCGGUGGCGCAAUAGCGCCAACGUCCUCAACCUCCAAUGCAUCCCACCACAUGAUGAUGCCUGAAGAGCCUUGGUUUUUUG [U7G G65A],-4.77
10,GACCAAGCUCCCCUCAGAGCUCGAGAACAUCUUCGGAUGCAGAGAAAGCAGGCUUCGGGGGCGCGAUAGCGCCAACAUCCUCAACCUCCAAUGCAUCCCACCACAUGAUGAUGCCUGAAGAGCCUUGGUUUUUUG [U7G G10C G45A G47A U59G G77A],-1.37
11,GACCAAGCUACCCUCAGAGCUCGAGAACAUCUUCGGAUUCAGAGGAGGCAGGCUUCGGUGGCGCGAUACCGCCAACGUCCUCAACCUCCAAUGCAUCCCAGCACAUGAUCAUGCCUGAAGAGCCUUGGUUUUUUG [U7G G10A G39U G69C C101G G110C],-7.07
12,GACCAAGCUGCCCUCAGAGCUCGAGAACAUCUUCGGAUGCAGAGGAGGCAGGCUUCGGUGGCGCGAUAGCGCAAACGUCAUCAACCUCCAAUGCAUCCCACCACAUGAUGAUGCCUGAAGAGCCUUGCUUUUUUG [U7G C73A C80A G128C],-5.2
13,GACCAAGCUGCCCUCAGAGCUCGAGAACAUCUUCGGAUGCAGAGGAGGCAGGCUUCGGUGGCGCGAUAGCGCCAACGUCCUCAACCUCCAAUCCAUCCCACCACAUGAUGAUGCCUGAAGAGCCUUGGUUUUUUG [U7G G93C],-0.742
14,GACCAAGCUGCCCUCAGAGCUCGAGAACAUCUUCGGAUGCAGAGGAGGCAGGCUUCGGGGGUGCGAUAGCGCCAACGUCCUCACCCUCCUAUGCAUCCCACCACAUGAUGUUGCAUGAAGAGCCUUGGUUUUUUG [U7G U59G C62U A84C A90U A111U C115A],-5.26
15,GACCAAGCUGCCCUCAGAGCUCGAGAACAUCUUCGGAUGCAGAGGAGGCAGGCUUCGGUGGCGCGAUAGCUCCAACGUCCUCAACCUCCAAUGCAUCCCACCACAUGAUGAUGCAUGAAGAGCCUUGGUUUUUUG [U7G G71U C115A],1.44
16,GACCAAGCUGCCCUCAGAGCUCGAGAACAUCUUCGGAUGCAGAGGAGGCAGGCUUCGGUGGCGCGAUAGCGCCAACGUCCUCAACCUCCAAUGCAUCCCACCACAUGAUGAUGCCUGAAGAGCCUUGGUUUCUUG [U7G U132C],0.108
17,GACCAAGCUGCCCUCAGAGCUCGAGAACAUCUUCGGAUGCAGAGGAGGCAGGCUUCGGUGGCGCGAUAGCGCCAACGUCCUCAACCUCAAAUGCAUCCCACCACAUGAUGAUGCCAAAAGAGCCUUGGUUUUUUG [U7G C89A U116A G117A],-2.89
18,GACCAAGCUUCCCUCAGAGCUCGAGAACAUCUUCGGAUGCAGAGGAGGCAGGCUUCGGUGGCGCGAUAGCGCCAACGUGCUCAACCUCCAAUGCAUCCCACCACAUGAUGAUGCCUGAAGAGCCUUGGUUUUUUG [U7G G10U C79G],-1.66
19,GACCAAGCUGCCCUCAGAGCUCGAGAACAUCUUCGGAUGCAGAGGAGGCAGGCUUCGGUGGCACGAUAGCGCCAACGUCCUCAACGUCCAAUGAAUCCCACCACAUGAUGAUUCCUGAAGAGCCUUGGUUUUUUG [U7G G63A C86G C94A G113U],-5.43
20,GACCAAGCUGCCCUCAGAGCUCGAGAACAUCGUCGGAUGCAGAGGAGGCAGGCUUCGGUGGCGCGAUAGCGCAAACGUCCUCAACCUCCAAUGCAUCACACCACAUGAUGAUGCCUGAAGAGCCUUGGUUUUUUG [U7G U32G C73A C98A],-4.14
21,GACCAAGCUGCCCUCAGAGCUCGAGAACAUCUUCGGAUGCAGAGGAGGCAGGAUUCGGUGGCGCGAUAGCGCCAACGUCCUCAACCUCCAUUGCAUCCCAGCACAUGAUGAUGCCUGAAGAGCCUUGGUUUUUUG [U7G C53A A91U C101G],-4.34
